One block for each binder: values may come before it.
How the values were obtained:
[1] = target: T1, CD11b (mouse, on the CD11b+ mutuDC dendritic cell line and on myeloid cells in vivo) (mouse, UniProt P05555 17-1153); test: FACS, CD11b+ mutuDC dendritic cell line stained in vitro with Alexa647-labeled DC13 monomer or dimer; reference DC13 monomer
T1 construct: whole, on cells; On cells CD11b is paired with CD18
Procedure: (§1) FIGS. 3A-3D (FIGS. 3A-3B) show dimers that are able to stain their targets with increased efficiency compared to their corresponding monomers; for FIG. 3A: cells were stained in vitro with the indicated concentrations of Alexa647-labeled VHH monomers or dimers; for FIG. 3B: equal amount of DC8 monomer and DC8-dimer is injected IV. 2 h p.i., the mice are euthanized and spleens are excised for two-photon imaging. (FIG. 3C) Equal amount of DC8 with or without PEG, both equipped with Texas Red is injected IV. 3 h p.i., the mice are euthanized and spleens are excised for two-photon imaging. (FIG. 3D) Equal amount of DC8 with or without PEG (0.4 nmols), all equipped with Alexa647 is injected IV. 3 h p.i., the mice are euthanized and spleen is excised. Cells were harvested and analyzed with FACS.
(§2) Four sortase substrates were designed and synthesized for production of dimers or PEGylated VHHs (FIG. 1). The substrates either contain two bioorthogonal handles or a handle and a fluorophore. The Alexa647-labeled substrate was designed such that the reaction products could be used in FACS experiments to estimate relative in vitro binding affinities. […] For DC8 (anti Class II), splenocytes were stained with different concentrations of monomers and dimers and analyzed by FACS. […] The in vivo binding characteristics of the VHH dimers versus monomers were evaluated. […]

[2] = target: T2, Class II MHC (mouse, on splenocytes and lymphoid organs) (mouse, UniProt P14434 24-256; P14483 28-265); test: FACS, splenocytes stained in vitro with different concentrations of Alexa647-labeled DC8 monomer or dimer; reference DC8 monomer
T2 construct: whole, on cells; also called Class II MHC products; Class II MHC molecules
T2 sequence (MHC II alpha, looked up): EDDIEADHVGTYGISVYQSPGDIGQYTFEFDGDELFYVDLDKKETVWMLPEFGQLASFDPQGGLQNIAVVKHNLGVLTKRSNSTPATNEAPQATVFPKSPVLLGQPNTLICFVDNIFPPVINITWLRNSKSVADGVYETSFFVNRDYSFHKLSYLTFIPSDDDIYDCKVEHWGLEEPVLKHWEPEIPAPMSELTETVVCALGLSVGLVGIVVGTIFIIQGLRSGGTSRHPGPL
T2 sequence (MHC II beta, looked up): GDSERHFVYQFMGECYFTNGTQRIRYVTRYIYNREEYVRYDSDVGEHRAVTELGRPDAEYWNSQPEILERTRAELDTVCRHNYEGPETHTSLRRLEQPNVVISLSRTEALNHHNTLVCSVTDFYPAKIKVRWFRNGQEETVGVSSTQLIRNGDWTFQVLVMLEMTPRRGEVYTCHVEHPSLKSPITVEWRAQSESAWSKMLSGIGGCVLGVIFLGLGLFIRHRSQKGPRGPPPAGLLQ
Procedure: as §1, §2

[3] = target: T2, Class II MHC (mouse, on splenocytes and …); test: FACS of spleen cells harvested 3 h after i.v. injection of Alexa647-labeled VHH into B6 mice; reference non-PEGylated DC8
Excerpt: Specificity was established by blocking the targets of these VHHs by introduction of unlabeled VHHs as competitors prior to imaging. […] To further confirm the specificity of the dimers in the absence of competing VHHs, MHC II^{-/-} and CD11b^{-/-} mice were imaged. No PET signals were detected in lymphoid organs, further confirming the specificity of both dimers (FIGS. 4E-4G). […] These experiments helped set the stage to explore ability of VHH dimers to image tumors. Two types of tumors were imaged with the developed bivalent VHHs by engraftment of mice with the B16 melanoma or the pancreatic tumor cell line panc02. Both the dimers readily detected the lymphoid organs as well as the B16 melanoma tumor or the panc02 graft. Upon excision, the panc-tumors were no more than ˜1-2 mm in diameter, showing the method to be sensitive. Postmortem biodistribution analysis correlated well with the FACS and two-photon results as well (FIGS. 5A-5B). It was examined whether circulatory half-life could be manipulated to further improve the signal to noise ratio. PEGylation of VHHs results in increased circulatory half-life, where the increase correlates with the size of the attached PEG group^{[15]}. VHHs sortagged with substrate 2 or 3 were reacted with DBCO-functionalized PEG (5 kDa, 10 kDa or 20 kDa) to yield the final PEGylated VHHs (FIGS. 2E-2F). B6 mice received 5 μg of PEGylated VHH and were euthanized 3 h later, followed by dissection of lymph nodes and spleen for FACS and two-photon microscopy.

T1 sequence (P05555 17-1153): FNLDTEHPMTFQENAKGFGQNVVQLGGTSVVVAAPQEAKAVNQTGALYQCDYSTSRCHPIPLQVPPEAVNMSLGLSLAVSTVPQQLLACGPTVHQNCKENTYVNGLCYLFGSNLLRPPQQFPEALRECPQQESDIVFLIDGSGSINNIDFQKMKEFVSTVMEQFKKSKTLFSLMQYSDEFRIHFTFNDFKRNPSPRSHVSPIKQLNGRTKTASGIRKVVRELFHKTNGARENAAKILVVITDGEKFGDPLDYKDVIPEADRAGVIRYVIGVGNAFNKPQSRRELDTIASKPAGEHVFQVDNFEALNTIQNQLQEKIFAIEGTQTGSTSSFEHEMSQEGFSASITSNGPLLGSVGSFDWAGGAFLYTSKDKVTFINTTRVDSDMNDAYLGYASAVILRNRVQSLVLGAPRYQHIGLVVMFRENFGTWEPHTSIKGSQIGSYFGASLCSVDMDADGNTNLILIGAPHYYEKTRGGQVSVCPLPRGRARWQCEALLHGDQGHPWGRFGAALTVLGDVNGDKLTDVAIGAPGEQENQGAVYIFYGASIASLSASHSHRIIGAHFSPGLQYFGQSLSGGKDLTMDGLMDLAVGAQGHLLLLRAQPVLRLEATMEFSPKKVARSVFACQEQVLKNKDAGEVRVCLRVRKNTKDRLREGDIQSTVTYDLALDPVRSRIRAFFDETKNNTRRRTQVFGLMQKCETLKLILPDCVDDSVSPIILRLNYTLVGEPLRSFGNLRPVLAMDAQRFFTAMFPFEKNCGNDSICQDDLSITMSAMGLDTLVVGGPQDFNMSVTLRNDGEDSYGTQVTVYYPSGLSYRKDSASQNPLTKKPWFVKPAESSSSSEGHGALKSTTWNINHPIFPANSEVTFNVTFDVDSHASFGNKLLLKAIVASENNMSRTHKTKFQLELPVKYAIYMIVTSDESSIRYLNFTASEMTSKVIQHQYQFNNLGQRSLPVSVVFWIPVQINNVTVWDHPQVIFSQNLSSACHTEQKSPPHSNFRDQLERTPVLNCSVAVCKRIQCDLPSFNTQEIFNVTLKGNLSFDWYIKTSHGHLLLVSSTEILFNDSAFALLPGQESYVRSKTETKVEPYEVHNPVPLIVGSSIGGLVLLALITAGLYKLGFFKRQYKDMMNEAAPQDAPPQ

B2: DC8 dimer (bivalent anti Class II MHC VHH, two DC8 joined via their C-termini by sortase and DBCO-azide click chemistry) (VHH)
VHH 1: QVQLQESGGGLVQPGGSLRLSCTASGFTFSTYYMSWVRKAPGKGPEWVSVMNSSGGDTRYADFVKGRFTISRDNAKNTLYLQMNSLKPEDTALYYCAQGRSDIYPTFTRGQGTQVTVSS
VHH 2: B2 VHH 1
modifications: C-terminal (Gly)3 continues as -PEG12-Cys(Alexa647, Texas Red or TCO/18F-tetrazine)-PEG5-Lys(azide); the azide is clicked to the DBCO of the other chain; C-terminal Cys carries maleimide-DBCO, clicked to the azide of the other chain
notes: Label differs by assay (Alexa647, Texas Red, 18F); also called 18F-DC8 dimer; anti Class II MHC dimer
- fold better binding than the corresponding monomer [2]: ~3.3 fold

B3: DC8-alexa647-PEG-5 kDa (site-specifically PEGylated DC8) (VHH)
VHH: B2 VHH 1
modifications: C-terminal (Gly)3 continues as -PEG12-Cys(Alexa647, Texas Red or TCO/18F-tetrazine)-PEG5-Lys(azide); the azide is clicked to DBCO-PEG 5 kDa
notes: Alexa647 form used for FACS, 18F form for PET and biodistribution; also called 5 kDa PEG-conjugated DC8; PEGylated DC8-Alexa647
- percent increase in staining versus non-PEGylated DC8 [3]: ~30%

B5: DC8-Alexa647-PEG-20 kDa (site-specifically PEGylated DC8) (VHH)
VHH: B2 VHH 1
modifications: C-terminal (Gly)3 continues as -PEG12-Cys(Alexa647, Texas Red or TCO/18F-tetrazine)-PEG5-Lys(azide); the azide is clicked to DBCO-PEG 20 kDa
notes: Alexa647 form used for FACS, 18F form for PET and biodistribution; also called 20 kDa PEG-conjugated DC8; PEGylated DC8-Alexa647
- percent increase in staining versus non-PEGylated DC8 [3]: ~220%

The remaining lines, values ahead:

- fold better binding than the corresponding monomer [1]: ~2.3 fold
B1: DC13 dimer (bivalent anti CD11b VHH, two DC13 joined via their C-termini by sortase and DBCO-azide click chemistry) (VHH)
VHH 1: QVQLQESGGGLVQTGGSLRLSCAASGVDFNWYSMGWFRQAPGKEREYVASIDQGGELDYAISVKGRFTISRDNAKNMVYLQMNSLKPEDTAVYYCAADFSGRGASNPDKYKYWGQGTQVTVSS
VHH 2: B1 VHH 1
modifications: C-terminal (Gly)3 continues as -PEG12-Cys(Alexa647, Texas Red or TCO/18F-tetrazine)-PEG5-Lys(azide); the azide is clicked to the DBCO of the other chain; C-terminal Cys carries maleimide-DBCO, clicked to the azide of the other chain
notes: Label differs by assay (Alexa647, 18F); also called DC13-dimer-Alexa647; 18F-DC13 dimer

- percent increase in staining versus non-PEGylated DC8 [3]: ~100%
B4: DC8-alexa647-PEG-10 kDa (site-specifically PEGylated DC8) (VHH)
VHH: B2 VHH 1
modifications: C-terminal (Gly)3 continues as -PEG12-Cys(Alexa647, Texas Red or TCO/18F-tetrazine)-PEG5-Lys(azide); the azide is clicked to DBCO-PEG 10 kDa
notes: Alexa647 form used for FACS, 18F form for PET and biodistribution; also called 10 kDa PEG-conjugated DC8; PEGylated DC8-Alexa647
